According to publication PMC7857395 (2020):

Target: SARS-CoV-2 S receptor-binding domain (RBD) (SARS-CoV-2, UniProt P0DTC2)
Assay: SPR

Binder	Kd
S2E12 Fab fragment (Fab, V domains shown) VH: not shown VL: DIVLTQTPGTLSLSPGERATLSCRASQSVSSSYLAWYQQKPGQAPRLLIYGASSRATGIPDRFSGSGSGTDFTLTISRLEPEDFAVYYCQQYVGLTGWTFGQGTKVEIK	1.6 nM
S2M11 Fab fragment (Fab, V domains shown) VH: EVQLVQSGAEVKKPGASVKVSCKASGYTFTGYYMHWVRQAPGQGLEWMGWINPISSGTSYAQTFQGRVTMTSDTSITTAYMELSRLRSDDTAVYYCARAAPFYDFWSGYSYFDYWGQGTLVTVSS VL: not shown	66 nM
